Results from the supplement of paper PMC9112550, “Optimization of the antimicrobial peptide Bac7 by deep mutational scanning” (BMC Biology, 2022).

Test system: Escherichia coli TOP10
Test: shrunken log2 fold change of peptide-encoding DNA abundance (4.5 h post-induction vs induction); higher = less antimicrobial activity (less host growth inhibition)
Details: time post-induction: 4.5 h; library: site-saturation at positions 5, 18, 19, 20
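Further: peptides expressed intracellularly from a pBAD plasmid library in pooled LB shake-flask culture, induced with 0.3% L-arabinose, DNA abundance read by NGS, three biological replicates, DESeq2 with apeglm shrinkage.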

| Sequence | shrunken log2 fold change |
| --- | --- |
| RRIRCRPPRLPRPRPRPSGPPRP | 0.124 |
| RRIRFRPPRLPRPRPRPFIWPRP | -0.312 |
| RRIRCRPPRLPRPRPRPGIQPRP | -0.248 |
| RRIRDRPPRLPRPRPRPCFRPRP | -0.157 |
| RRIRWRPPRLPRPRPRPHYLPRP | -0.106 |
| RRIRPRPPRLPRPRPRPVTRPRP | -0.0129 |
| RRIRVRPPRLPRPRPRPEKNPRP | 0.0805 |
| RRIRFRPPRLPRPRPRPCNSPRP | -0.0848 |
| RRIRKRPPRLPRPRPRPSLLPRP | -0.0176 |
| RRIRYRPPRLPRPRPRPHVKPRP | -0.00472 |
| RRIRERPPRLPRPRPRPYPAPRP | -0.544 |
| RRIRYRPPRLPRPRPRPTGGPRP | -0.0407 |
| RRIRIRPPRLPRPRPRPKAAPRP | 0.147 |
| RRIRDRPPRLPRPRPRPDLYPRP | 0.309 |
| RRIRTRPPRLPRPRPRPCFNPRP | -0.667 |
| RRIRYRPPRLPRPRPRPPNEPRP | -0.106 |
| RRIRVRPPRLPRPRPRPHFIPRP | -0.304 |
| RRIRGRPPRLPRPRPRPSWWPRP | 0.537 |
| RRIRARPPRLPRPRPRPRVLPRP | 0.189 |
| RRIRARPPRLPRPRPRPQNEPRP | -0.12 |
| RRIRDRPPRLPRPRPRPPRNPRP | 0.27 |
| RRIRVRPPRLPRPRPRPKWSPRP | 0.0979 |
| RRIRERPPRLPRPRPRPGCWPRP | 0.166 |
| RRIRSRPPRLPRPRPRPLYAPRP | -0.164 |
| RRIRVRPPRLPRPRPRPIMKPRP | -0.473 |

| Sequence | shrunken log2 fold change |
| --- | --- |
| RRIRVRPPRLPRPRPRPFVEPRP | -0.361 |
| RRIRKRPPRLPRPRPRPHGCPRP | 0.352 |
| RRIRHRPPRLPRPRPRPCQNPRP | -0.0608 |
| RRIRVRPPRLPRPRPRPPKWPRP | 0.133 |
| RRIRLRPPRLPRPRPRPRFEPRP | 0.529 |
| RRIRLRPPRLPRPRPRPQPWPRP | 0.319 |
| RRIRRRPPRLPRPRPRPIPCPRP | 0.0472 |
| RRIRARPPRLPRPRPRPGGTPRP | 0.41 |
| RRIRTRPPRLPRPRPRPIYWPRP | -0.157 |
| RRIRWRPPRLPRPRPRPCGLPRP | 0.123 |
| RRIRPRPPRLPRPRPRPDRYPRP | -0.0207 |
| RRIRWRPPRLPRPRPRPWPIPRP | 0.0793 |
| RRIRVRPPRLPRPRPRPCFNPRP | -0.421 |
| RRIRTRPPRLPRPRPRPSNGPRP | -0.126 |
| RRIRGRPPRLPRPRPRPAWNPRP | 0.378 |
| RRIRERPPRLPRPRPRPHLRPRP | -0.173 |
| RRIRNRPPRLPRPRPRPFHAPRP | -0.0245 |
| RRIRTRPPRLPRPRPRPGYAPRP | 0.111 |
| RRIRGRPPRLPRPRPRPHEFPRP | 0.144 |
| RRIRARPPRLPRPRPRPGGYPRP | 0.116 |
| RRIRRRPPRLPRPRPRPQLYPRP | 0.101 |
| RRIRWRPPRLPRPRPRPIDTPRP | 0.00736 |
| RRIRKRPPRLPRPRPRPPYRPRP | -0.17 |
| RRIRCRPPRLPRPRPRPAWVPRP | 0.316 |
| RRIRYRPPRLPRPRPRPGVAPRP | 0.182 |

| Sequence | shrunken log2 fold change |
| --- | --- |
| RRIRQRPPRLPRPRPRPVQRPRP | 0.862 |
| RRIRYRPPRLPRPRPRPHMLPRP | -1.09 |
| RRIRDRPPRLPRPRPRPCDVPRP | -0.0231 |
| RRIRERPPRLPRPRPRPDYFPRP | -0.249 |
| RRIRPRPPRLPRPRPRPYMEPRP | 1.54 |
| RRIRHRPPRLPRPRPRPRVNPRP | 0.106 |
| RRIRYRPPRLPRPRPRPDTIPRP | -0.145 |
| RRIRIRPPRLPRPRPRPHNAPRP | -0.549 |
| RRIRVRPPRLPRPRPRPEAMPRP | -0.0277 |
| RRIRLRPPRLPRPRPRPMMIPRP | -0.203 |
| RRIRGRPPRLPRPRPRPCMCPRP | 0.263 |
| RRIRVRPPRLPRPRPRPTFFPRP | 0.0435 |
| RRIRIRPPRLPRPRPRPRHEPRP | 0.0234 |
| RRIRPRPPRLPRPRPRPWYRPRP | -0.601 |
| RRIRKRPPRLPRPRPRPQLAPRP | 0.898 |
| RRIRKRPPRLPRPRPRPRDAPRP | 0.558 |
| RRIRDRPPRLPRPRPRPHEDPRP | 0.0325 |
| RRIRARPPRLPRPRPRPMKFPRP | 0.0174 |
| RRIRNRPPRLPRPRPRPRATPRP | 0.659 |
| RRIRARPPRLPRPRPRPIENPRP | 0.203 |
| RRIRVRPPRLPRPRPRPKFSPRP | 0.0178 |
| RRIRPRPPRLPRPRPRPEHFPRP | 0.134 |
| RRIRWRPPRLPRPRPRPCPDPRP | 0.111 |
| RRIRLRPPRLPRPRPRPVDSPRP | 0.0702 |
| RRIRYRPPRLPRPRPRPLINPRP | -0.279 |

| Sequence | shrunken log2 fold change |
| --- | --- |
| RRIRLRPPRLPRPRPRPDFIPRP | -0.295 |
| RRIRSRPPRLPRPRPRPQTVPRP | -0.26 |
| RRIRQRPPRLPRPRPRPRTMPRP | -0.232 |
| RRIRMRPPRLPRPRPRPRWTPRP | 0.548 |
| RRIRWRPPRLPRPRPRPETDPRP | 0.773 |
| RRIRLRPPRLPRPRPRPQRLPRP | 0.239 |
| RRIRLRPPRLPRPRPRPASLPRP | 0.105 |
| RRIRIRPPRLPRPRPRPFMDPRP | -1.07 |
| RRIRWRPPRLPRPRPRPEEPPRP | 0.805 |
| RRIRRRPPRLPRPRPRPSRIPRP | 0.157 |
| RRIRRRPPRLPRPRPRPRYRPRP | -0.0166 |
| RRIRQRPPRLPRPRPRPNLCPRP | -0.00174 |
| RRIRKRPPRLPRPRPRPYVQPRP | -0.332 |
| RRIRHRPPRLPRPRPRPCKGPRP | -0.0269 |
| RRIRVRPPRLPRPRPRPGMAPRP | 0.183 |
| RRIRTRPPRLPRPRPRPAPPPRP | 0.525 |
| RRIRDRPPRLPRPRPRPILWPRP | 0.00705 |
| RRIRPRPPRLPRPRPRPEATPRP | 0.33 |
| RRIRRRPPRLPRPRPRPHAMPRP | 0.191 |
| RRIRCRPPRLPRPRPRPSCGPRP | -0.103 |
| RRIRLRPPRLPRPRPRPTCSPRP | -0.0337 |
| RRIRYRPPRLPRPRPRPNNVPRP | -0.323 |
| RRIRQRPPRLPRPRPRPAQNPRP | 0.231 |
| RRIRTRPPRLPRPRPRPACNPRP | 0.0894 |
| RRIRDRPPRLPRPRPRPKYPPRP | 0.0118 |

| Sequence | shrunken log2 fold change |
| --- | --- |
| RRIRARPPRLPRPRPRPIAIPRP | 0.0259 |
| RRIRSRPPRLPRPRPRPTMTPRP | 0.391 |
| RRIRYRPPRLPRPRPRPKCQPRP | -0.182 |
| RRIRGRPPRLPRPRPRPHYTPRP | -0.379 |
| RRIRVRPPRLPRPRPRPCEIPRP | -0.0392 |
| RRIRCRPPRLPRPRPRPRKNPRP | -0.00471 |
| RRIRIRPPRLPRPRPRPPIAPRP | -0.109 |
| RRIRGRPPRLPRPRPRPYNAPRP | -0.332 |
| RRIRRRPPRLPRPRPRPVGFPRP | 0.362 |
| RRIRVRPPRLPRPRPRPSCEPRP | -0.303 |
| RRIRDRPPRLPRPRPRPHWFPRP | 0.0318 |
| RRIRYRPPRLPRPRPRPENWPRP | -0.223 |
| RRIRVRPPRLPRPRPRPDKTPRP | -0.0309 |
| RRIRPRPPRLPRPRPRPVNAPRP | 0.138 |
| RRIRQRPPRLPRPRPRPVCIPRP | -0.39 |
| RRIRTRPPRLPRPRPRPQSLPRP | -0.0105 |
| RRIRCRPPRLPRPRPRPDMIPRP | -0.69 |
| RRIRERPPRLPRPRPRPYQFPRP | -0.159 |
| RRIRHRPPRLPRPRPRPLWCPRP | -0.22 |
| RRIRRRPPRLPRPRPRPGSPPRP | 0.107 |
| RRIRARPPRLPRPRPRPLRIPRP | 2.9 |
| RRIRIRPPRLPRPRPRPENIPRP | -0.106 |
| RRIRMRPPRLPRPRPRPQRHPRP | 0.348 |
| RRIRNRPPRLPRPRPRPKWDPRP | 0.0992 |
| RRIRARPPRLPRPRPRPRLLPRP | 0.526 |
